Biological target: T1, STK11IP (human, UniProt Q8N1F8 1-1088)
T1 sequence (looked up): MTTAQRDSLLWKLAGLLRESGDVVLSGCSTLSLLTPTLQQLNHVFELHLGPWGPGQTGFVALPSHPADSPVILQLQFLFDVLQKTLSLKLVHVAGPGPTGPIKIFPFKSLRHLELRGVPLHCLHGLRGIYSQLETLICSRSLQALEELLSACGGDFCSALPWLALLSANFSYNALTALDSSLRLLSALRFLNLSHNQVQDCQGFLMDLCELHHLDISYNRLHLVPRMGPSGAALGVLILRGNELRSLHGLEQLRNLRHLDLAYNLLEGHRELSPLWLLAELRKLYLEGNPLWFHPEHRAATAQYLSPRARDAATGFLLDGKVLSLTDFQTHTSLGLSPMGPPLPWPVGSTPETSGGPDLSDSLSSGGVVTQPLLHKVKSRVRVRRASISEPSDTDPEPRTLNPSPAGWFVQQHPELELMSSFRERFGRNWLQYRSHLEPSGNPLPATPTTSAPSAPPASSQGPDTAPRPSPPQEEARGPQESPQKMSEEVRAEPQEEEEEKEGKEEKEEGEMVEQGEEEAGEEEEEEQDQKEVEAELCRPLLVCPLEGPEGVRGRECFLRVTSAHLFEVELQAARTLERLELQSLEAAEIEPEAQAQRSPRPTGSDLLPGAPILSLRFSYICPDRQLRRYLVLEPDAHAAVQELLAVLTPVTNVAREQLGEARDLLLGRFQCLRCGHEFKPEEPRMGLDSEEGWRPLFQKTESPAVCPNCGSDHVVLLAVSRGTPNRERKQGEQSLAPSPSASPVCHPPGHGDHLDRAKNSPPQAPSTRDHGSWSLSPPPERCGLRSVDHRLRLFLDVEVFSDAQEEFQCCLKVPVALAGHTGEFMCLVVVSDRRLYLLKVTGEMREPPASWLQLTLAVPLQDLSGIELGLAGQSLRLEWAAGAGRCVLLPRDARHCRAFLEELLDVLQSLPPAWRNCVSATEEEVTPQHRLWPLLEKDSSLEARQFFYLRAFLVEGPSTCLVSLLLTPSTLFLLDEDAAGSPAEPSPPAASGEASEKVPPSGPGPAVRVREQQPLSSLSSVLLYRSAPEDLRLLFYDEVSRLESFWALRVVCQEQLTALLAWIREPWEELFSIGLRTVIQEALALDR
Test: IP/MS, LZTR1 wild type-FLAG, U87
Procedure, shortened: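 Read-out: spectral counts from LC-MS/MS (Orbitrap Fusion) after MaxQuant identification. Variable modifications were Met oxidation, protein N-terminal acetylation and N/Q deamidation.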

binding result: binds
B1: LZTR1-FLAG (other, human, UniProt Q8N653 1-840, looked up)
chain: MAGPGSTGGQIGAAALAGGARSKVAPSVDFDHSCSDSVEYLTLNFGPFETVHRWRRLPPCDEFVGARRSKHTVVAYKDAIYVFGGDNGKTMLNDLLRFDVKDCSWCRAFTTGTPPAPRYHHSAVVYGSSMFVFGGYTGDIYSNSNLKNKNDLFEYKFATGQWTEWKIEGRLPVARSAHGATVYSDKLWIFAGYDGNARLNDMWTIGLQDRELTCWEEVAQSGEIPPSCCNFPVAVCRDKMFVFSGQSGAKITNNLFQFEFKDKTWTRIPTEHLLRGSPPPPQRRYGHTMVAFDRHLYVFGGAADNTLPNELHCYDVDFQTWEVVQPSSDSEVGGAEVPERACASEEVPTLTYEERVGFKKSRDVFGLDFGTTSAKQPTQPASELPSGRLFHAAAVISDAMYIFGGTVDNNIRSGEMYRFQFSCYPKCTLHEDYGRLWESRQFCDVEFVLGEKEECVQGHVAIVTARSRWLRRKITQARERLAQKLEQEAAPVPREAPGVAAGGARPPLLHVAIREAEARPFEVLMQFLYTDKIKYPRKGHVEDVLLIMDVYKLALSFQLCRLEQLCRQYIEASVDLQNVLVVCESAARLQLSQLKEHCLNFVVKESHFNQVIMMKEFERLSSPLIVEIVRRKQQPPPRTPLDQPVDIGTSLIQDMKAYLEGAGAEFCDITLLLDGHPRPAHKAILAARSSYFEAMFRSFMPEDGQVNISIGEMVPSRQAFESMLRYIYYGEVNMPPEDSLYLFAAPYYYGFYNNRLQAYCKQNLEMNVTVQNVLQILEAADKTQALDMKRHCLHIIVHQFTKVSKLPTLRSLSQQLLLDIIDSLASHISDKQCAELGADI
notes: Expressed in HEK 293T, HeLa or U87 cells; used as cell lysate; also called LZTR1 wild type-FLAG; LZTR1 WT; not shown: FLAG tag at the C-terminus
